Experimental data published in patent EP4806514A2 (Lepu Biopharma Co., Ltd., dated 2025).
Positions count from the first letter of the chain named.

T1: human CDH17, full length, expressed on cells (HEK293-hCDH17); AsPC-1, HCT-8, AGS, LoVo, KATO III, HT-29 tumor … (human, UniProt Q12864 23-832)
T1 construct: also called human CDH17 expressed on tumor cells
T1 sequence: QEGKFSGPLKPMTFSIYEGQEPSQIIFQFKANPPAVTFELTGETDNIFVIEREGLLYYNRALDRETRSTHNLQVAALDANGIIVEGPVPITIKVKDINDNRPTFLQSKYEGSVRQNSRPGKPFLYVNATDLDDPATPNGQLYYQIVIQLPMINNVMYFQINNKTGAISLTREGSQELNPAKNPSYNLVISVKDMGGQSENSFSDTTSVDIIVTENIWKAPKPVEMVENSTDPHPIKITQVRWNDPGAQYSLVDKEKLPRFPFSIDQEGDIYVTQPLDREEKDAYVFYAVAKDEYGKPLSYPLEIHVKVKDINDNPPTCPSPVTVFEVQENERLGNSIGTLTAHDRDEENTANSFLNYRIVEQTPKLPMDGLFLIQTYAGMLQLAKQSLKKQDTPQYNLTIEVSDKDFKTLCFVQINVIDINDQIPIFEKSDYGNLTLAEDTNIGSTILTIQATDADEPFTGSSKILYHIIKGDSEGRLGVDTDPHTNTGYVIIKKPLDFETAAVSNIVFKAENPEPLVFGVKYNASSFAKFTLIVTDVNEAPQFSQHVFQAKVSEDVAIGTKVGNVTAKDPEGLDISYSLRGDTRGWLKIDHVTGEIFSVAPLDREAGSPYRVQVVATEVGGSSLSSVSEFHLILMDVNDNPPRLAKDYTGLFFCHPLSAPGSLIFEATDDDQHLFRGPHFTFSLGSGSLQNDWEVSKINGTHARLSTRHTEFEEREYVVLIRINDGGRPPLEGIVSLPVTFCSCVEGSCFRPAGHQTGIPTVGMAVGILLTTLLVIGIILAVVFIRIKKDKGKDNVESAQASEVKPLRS

T2: hCDH17-his (full length extracellular domain of human CDH17, Q23-M787, his tag at the C-terminal) (human, UniProt Q12864 23-787)
T2 construct: Limits of the construct (UniProt Q12864, Q23-M787, C-terminal his tag); also called human CDH17-his protein; human CDH17 protein
T2 sequence: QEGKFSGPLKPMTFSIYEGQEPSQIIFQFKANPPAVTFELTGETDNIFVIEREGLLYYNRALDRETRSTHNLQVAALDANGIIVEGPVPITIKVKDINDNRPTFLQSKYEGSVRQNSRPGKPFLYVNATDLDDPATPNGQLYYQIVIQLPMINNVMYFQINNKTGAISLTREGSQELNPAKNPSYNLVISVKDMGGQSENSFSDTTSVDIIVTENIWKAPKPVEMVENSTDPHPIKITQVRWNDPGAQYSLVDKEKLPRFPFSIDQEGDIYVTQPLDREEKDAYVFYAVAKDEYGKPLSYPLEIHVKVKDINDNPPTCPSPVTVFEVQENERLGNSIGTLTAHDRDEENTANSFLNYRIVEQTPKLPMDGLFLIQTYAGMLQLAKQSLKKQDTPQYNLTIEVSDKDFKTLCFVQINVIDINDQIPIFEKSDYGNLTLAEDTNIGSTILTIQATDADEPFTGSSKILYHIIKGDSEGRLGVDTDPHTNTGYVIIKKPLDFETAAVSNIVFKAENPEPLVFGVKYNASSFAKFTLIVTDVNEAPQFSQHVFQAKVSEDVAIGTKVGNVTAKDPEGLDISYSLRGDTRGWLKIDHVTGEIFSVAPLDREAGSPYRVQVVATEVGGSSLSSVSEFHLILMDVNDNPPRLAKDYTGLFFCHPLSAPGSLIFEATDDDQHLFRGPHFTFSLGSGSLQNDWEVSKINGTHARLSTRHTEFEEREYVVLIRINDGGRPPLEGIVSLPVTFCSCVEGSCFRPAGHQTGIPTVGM

T3: human CDH16 protein (hCDH16-his, Novoprotein, Cat. No. CJ16) (human, UniProt O75309 19-786)
T3 construct: Bought; also called human CDH16-his
T3 sequence (looked up): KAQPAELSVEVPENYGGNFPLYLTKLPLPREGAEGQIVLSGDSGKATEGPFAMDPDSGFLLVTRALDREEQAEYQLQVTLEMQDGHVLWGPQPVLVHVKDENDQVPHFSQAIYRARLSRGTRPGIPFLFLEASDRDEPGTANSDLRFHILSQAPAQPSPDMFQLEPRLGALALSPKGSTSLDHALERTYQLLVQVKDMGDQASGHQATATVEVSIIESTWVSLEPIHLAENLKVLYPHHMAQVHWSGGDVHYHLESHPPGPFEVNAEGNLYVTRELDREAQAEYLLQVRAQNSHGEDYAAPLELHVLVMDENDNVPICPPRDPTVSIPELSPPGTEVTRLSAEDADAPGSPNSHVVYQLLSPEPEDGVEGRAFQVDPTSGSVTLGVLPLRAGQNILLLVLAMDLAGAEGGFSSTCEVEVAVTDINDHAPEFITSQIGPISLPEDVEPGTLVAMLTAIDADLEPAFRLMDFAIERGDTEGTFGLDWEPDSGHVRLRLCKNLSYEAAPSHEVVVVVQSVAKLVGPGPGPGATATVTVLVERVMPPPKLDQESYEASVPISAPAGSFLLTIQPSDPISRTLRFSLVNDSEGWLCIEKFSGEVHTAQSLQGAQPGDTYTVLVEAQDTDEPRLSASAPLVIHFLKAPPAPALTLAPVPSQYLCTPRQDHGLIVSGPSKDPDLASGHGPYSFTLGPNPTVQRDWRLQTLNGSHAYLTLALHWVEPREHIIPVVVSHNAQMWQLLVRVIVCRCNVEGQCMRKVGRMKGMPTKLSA

B1: 152A1D12-z17 (antibody, V domains shown)
VH: QVQLVQSGAEVKKPGASVKVSCKASGYTFTDYNMHWVKQAPGQRLEWIGYIYRNNGYNGYNQKFKNKATLTVDTSASTAYMELSSLRSEDTAVYYCARNYWRGAMDYWGQGTTVTVSS
VL: EIVLTQSPATLSLSPGERATLSCSASSSISYMHWYQQKPGQAPRLLIYDTSKLASGIPARFSGSGSGTDFTLTISSLEPEDFAVYYCHQRSSYPWTFGGGTKVEIK
notes: Humanized, human IgG1 constant region; also called 152A1D12 HU-VH1-3 / HU-VL2-0
B2: 152A1D12-z18 (antibody, V domains shown)
VH: B1 VH
VL: B1 VL with L46W, I57V
notes: Humanized, human IgG1 constant region; also called 152A1D12 HU-VH1-3 / HU-VL2-1
B3: 152A1D12-z13 (antibody, V domains shown)
VH: B1 VH
VL: B1 VL with Q41K, R44K, I57V, A59S, E78Q, V84T
notes: Humanized, human IgG1 constant region; also called 152A1D12 HU-VH1-3 / HU-VL1-0
B4: 152A1D12 chimeric mAb (antibody, V domains shown)
VH: EVQLQQSGPELVKPGASVKISCKASGYTFTDYNMHWVKQSHGKSLEWIGYIYRNNGYNGYNQKFKNKATLTVDSSSSTAYMELRSLTSEDSAVYYCARNYWRGAMDYWGQGTSVTVSS
VL: QIVLTQSPAIMSASPGEKVTMTCSASSSISYMHWYQQKPGTSPKRWIYDTSKLASGVPARFSGSGSGTSYSLTISSMEAEDAGTYYCHQRSSYPWTFGGGTKLEIK
notes: Mouse variable regions fused to human IgG1 constant region
B5: 134C7B1 chimeric mAb (antibody, V domains shown)
VH: AVQLQQSGPELLKPGASVKISCKASGYTFTDYTMHWVKQSHGKSLEWIGGINPNYGGTSYNETFKDKATLTVDKSSNTAYMELRSLTSEDSAVYYCARIPYGSYPMDYWGQGTSVTVSS
VL: DIVMSQSPSSLTVSVGEKVTMSCKSSQSLLYSSNQKIYLAWYQQKPGQSPKLLISWASTRESGVPDRFTGSGSGTDFTLTISSVKAEDLADYYCQQYYRYRTFGGGTKLEIK
notes: as for B4
B6: 120B10C5 chimeric mAb (antibody, V domains shown)
VH: QVQLQQSGAELAKPGASVKLSCRTSGYTFTNYWMHWVKQRPGQGLEWIGYINPSSGYTKYNQKFKDKATLTADKSSSTAYMQLSSLTYEDSAVHYCARSLNYYDSGYWYFDVWGTGTAVTVSS
VL: DIVLTQSPASLAVSLGQRATISCRASQSVSTSSYSYMHWYQQKPGQPPKLLIKYASNLESRVPARFSGSGSGTDFTLNIHPVEEEDSATYYCQHSWEIPWTFGGGTKLEIK
notes: as for B4
B7: 16C18 chimeric mAb (antibody, V domains shown)
VH: QVQLQQSGAELAKPGTSVKMSCKASGYNFTNYWMNWVKQRPGQGLEWIGTFNPSYGYTEYNQKFKDKAILTADKSSSTAYMQLNSLTSEDSAVYYCARRSSHFDYWGQGTTLTVSS
VL: DIVMSQSPSSLAVSAGEKVTMSCKSSQSLLNSRTRTNYLAWYQQKPGQSPKLLIYWASTRESGVPDRFTGSGSGTDFTLTISSVQAEDLAVYYCKQSYNLPTFGGGTKLEIK
notes: also called 16C8
B8: 155B11C6-z3 (antibody, V domains shown)
VH: QVQLVQSGAEVKKPGASVKVSCKASGYTFTSYTMHWVRQAPGQGLEWMGYIDPKSDYNYYNQKFKDRVTMTRDTSISTAYMELSRLRSDDTAVYYCARGFFKGYFDVWGQGTTVTVSS
VL: EIVLTQSPGTLSLSPGERATLSCSVSSSISSSNLHWYQQKPGQAPRPWIYGTSNLASGVPDRFSGSGSGTDYTLTISRLEPEDFAVYYCQQWTSYPFTFGQGTKLEIK
notes: Humanized, human IgG1 constant region; also called 155B11C6 HU-VH1-0 / HU-VL1-2
B9: 155B11C6-z7 (antibody, V domains shown)
VH: B8 VH with M48I, V68A, M70L
VL: B8 VL
notes: Humanized, human IgG1 constant region; also called 155B11C6 HU-VH1-2 / HU-VL1-2
B10: 155B11C6-z4 (antibody, V domains shown)
VH: B8 VH
VL: B8 VL with A44S, D71S
notes: Humanized, human IgG1 constant region; also called 155B11C6 HU-VH1-0 / HU-VL1-3
B11: 143H10E4 chimeric mAb (antibody, V domains shown)
VH: QVQLQQSDAELVKPGASVKISCKASGSTFTDHTIHWVKQRPEQGLEWIGYIYPVYGYTQNNEKFKGKATLTADKSSSTAYMQLNSLTSEDSAVYFCARSRDSNPYYFDYWGQGTTLTVSS
VL: EIVLTQSPALMAASPGEKVTITCTVSSSISSSNLHWYQQKSGTSPKPWIYGTSNLASGVPVRFSGSGSGTSYSLTISSMEAEDAATYYCQQWSSYPFTFGSGTKLKMK
notes: as for B4
B12: 155B11C6 chimeric mAb (antibody, V domains shown)
VH: QVQLQQSGAELARPGASVKMSCKASGYTFTSYTMHWVKQRPGQGLEWIGYIDPKSDYNYYNQKFKDKATLTADKSSSTAYMQLSGLTSEDSTVYYCARGFFKGYFDVWGAGTTVTVSS
VL: B11 VL with A9P, T24S, G42E, V61I, S93T, S101A, K106E, M107L
notes: as for B4

What was measured:
[1] = target: T1, human CDH17, full length, expressed on …; assay: flow cytometry, AGS cells
[2] = target: T2, hCDH17-his (full length extracellular …); assay: SPR (Biacore 8K), antibody captured on Protein A chip, hCDH17-his injected
[3] = target: T3, human CDH16 protein (hCDH16-his, …); assay: ELISA, hCDH16-his coated at 1 ug/mL
[4] = target: T2, hCDH17-his (full length extracellular …); assay: ELISA, hCDH17-his coated at 2 ug/mL
[5] = target: T1, human CDH17, full length, expressed on …; assay: flow cytometry, HEK293-hCDH17 cells

Binder | binding result [1] | binding result [2] | binding result [3] | binding result [4] | binding result [5]
B1 | binds | binds | – | – | –
B2 | binds | binds | – | – | –
B3 | binds | binds | – | – | –
B4 | – | – | no binding (tested: titrated from 100 nM) | binds | binds
B5 | – | – | no binding (tested: titrated from 100 nM) | binds | binds
B6 | – | – | no binding (tested: titrated from 100 nM) | binds | binds
B7 | – | – | no binding (tested: titrated from 100 nM) | binds | binds
B8 | binds | binds | – | – | –
B9 | binds | binds | – | – | –
B10 | binds | binds | – | – | –
B11 | – | – | no binding (tested: titrated from 100 nM) | binds | binds
B12 | – | – | no binding (tested: titrated from 100 nM) | binds | binds
